Experimental data taken from patent US20180134804A1.
Where “and” joins values, the source holds several entries; their conditions need not be identical. Identical values can stand only once.

Key:
[1] = target: HLA-A0201 on T2 cells without added peptide (human); assay: flow cytometry: BB7 staining of T2 cells without peptide
[2] = target: CD3 on purified human T cells (human) (UniProt P07766); assay: flow cytometry of purified human CD3 T cells, BiTE at 10 ug/ml then FITC secondary; secondary alone (GA6His_F 1;100) 8.13, unstained 8.13
[3] = target: CD3 on purified human T cells (human) (UniProt P07766); assay: flow cytometry of purified human CD3 T cells, BiTE at 1 ug/ml then FITC secondary; secondary alone (GA6His_F 1;100) 8.13, unstained 8.13
[4] = target: CD3 on purified human T cells (human) (UniProt P07766); assay: flow cytometry of purified human CD3 T cells, BiTE at 0.1 ug/ml then FITC secondary; secondary alone (GA6His_F 1;100) 8.13, unstained 8.13
[5] = target: CD3 on purified human T cells (human) (UniProt P07766); assay: flow cytometry of purified human CD3 T cells, BiTE at 10 ug/ml then FITC secondary; same sample file as in FIGURE 5B
[6] = target: Ras10-WT peptide/HLA-A0201 complex on peptide-pulsed T2 cells (human)
[7] = target: Ras10-G12V peptide/HLA-A0201 complex on peptide-pulsed T2 cells (human)
[8] = target: CD3 on purified human T cells (human) (UniProt P07766); assay: flow cytometry of purified human CD3 T cells, BiTE at 0.1 ug/ml then FITC secondary; same sample file as in FIGURE 5B
[9] = target: CD3 on purified human T cells (human) (UniProt P07766); assay: flow cytometry of purified human CD3 T cells, BiTE at 1 ug/ml then FITC secondary; same sample file as in FIGURE 5B

Sequence of CD3 on purified human T cells (human) (P07766 23-207): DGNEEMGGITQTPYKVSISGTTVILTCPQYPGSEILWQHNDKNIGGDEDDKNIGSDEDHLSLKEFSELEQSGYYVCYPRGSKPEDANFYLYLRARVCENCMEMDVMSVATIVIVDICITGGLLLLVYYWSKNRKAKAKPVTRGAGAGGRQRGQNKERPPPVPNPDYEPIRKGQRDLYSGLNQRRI

Median:FL1-H [1]	Substance	Median:FL1-H [2]	Median:FL1-H [3]	Median:FL1-H [4]	Median:FL1-H [5]	Median:FL1-H [6]	Median:FL1-H [7]	Median:FL1-H [8]	Median:FL1-H [9]
316	BB7 (antibody)								
	isotype control BiTE (bispecific antibody)	604	229	39.6	604	10.7 and 11.2	11.2 and 11.4	39.6	229
